Experimental data as given in publication PMC9549473, “Triple-FRET multi-purpose fluorescent probe for three-protease detection” (RSC Advances, 2022).
Non-standard residues stand in square brackets, D forms with d. Residues, ends and D or L forms follow the SMILES beside them. Groups on a side chain read outwards from the residue. *: point of attachment. RhodamineB = CCN(CC)c1ccc2c(-c3ccccc3C(=O)*)c3ccc(=[N+](CC)CC)cc-3oc2c1; X1 = CC[N+](CC)=c1ccc2c(-c3ccccc3C(=O)*)c3c(oc-2c1)-c1ccc(N(C)C)cc1CC3; X3 = CCN(CC)c1ccc2cc(C(=O)N[C@@H](CCCCN*)C(=O)O)c(=O)oc2c1; X2 = O=C(c1ccccc1-c1c2ccc(=O)cc-2oc2cc(O)ccc12)*; AEEA = NCCOCCOCC(=O)O; Sar = CNCC(=O)O

Experiments:
[1] = biological target: T1, Caspase-8 (human, recombinant, active) (Homo sapiens, UniProt Q14790); test: Single protease detection with the triple-FRET 4-dye probe: caspase-8; format: biochemical; conditions: 5 μM probe, Tris–HCl pH 8.0 with DTT 10 mM, 37 °C, 45 min, λexc 425 nm, three parallels
T1 construct: Caspase-8 (human, recombinant, active, 5000 units per mg protein); purchased Enzo Life Sciences, Inc. (New York, USA)
T1 sequence (Q14790 217-374 limits assumed): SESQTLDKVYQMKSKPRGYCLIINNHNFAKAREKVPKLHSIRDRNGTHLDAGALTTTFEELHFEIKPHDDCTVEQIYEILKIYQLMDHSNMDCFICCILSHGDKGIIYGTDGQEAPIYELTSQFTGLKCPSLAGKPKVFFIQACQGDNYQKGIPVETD
T1 sequence (Q14790 385-479 limits assumed): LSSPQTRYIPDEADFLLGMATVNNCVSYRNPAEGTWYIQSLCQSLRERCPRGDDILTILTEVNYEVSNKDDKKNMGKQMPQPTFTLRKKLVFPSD
Excerpt: (§1) Trypsin (bovine pancreas, TPCK treated, ≥10 000 BAEE units per mg protein) and α-chymotrypsin (bovine pancreas, TLCK treated, type VII, ≥40 units per mg protein) were ordered from Sigma-Aldrich (Steinheim, Germany). Caspase-8 (human, recombinant, active, 5000 units per mg protein) was provided by Enzo Life Sciences, Inc. (New York, USA). All enzyme species were obtained in the form of lyophilized white to off-white powders. They were reconstituted according to the providers' instructions, aliquoted in Eppendorf tubes, and finally stored at −80 °C in a deep freezer (Arctiko, Esbjerg Kommune, Denmark). […]
(§2) The appropriate amount of the 4-dye probe (1) was dissolved in 950 μL of Tris–HCl buffer. […] Afterwards, the fluorescence emission spectrum upon excitation with the light source of 425 nm was measured at the time 0 using a fluorescence spectrometer (Cary Eclipse, Agilent Technologies, Santa Carla, CA, USA). […] Fluorescence emission responses were then repeatedly measured at the times 2, 5, 8, 12, 16, 20, 25, 30, 35, 40, and 45 min. During the entire period of the experiment, a fluorimeter cuvette was placed in a cell holder preheated to 37 °C, and located inside a fluorescence spectrometer.
(§3) Additionally, the rules for individual protease recognition could be graphically presented, using fluorescence emission ratios of suitable fluorophores measured at particular times. […]

[2] = Stability in buffer solution without enzyme (fluorescence responses, blank sample); format: physicochemical; conditions: no enzyme, 5 μM probe, λexc 425 nm
Method: Enzyme assays were carried out in 0.1 M Tris–HCl buffer solution in ultrapure water, with the addition of NaCl (25 mM), EDTA (5 mM) and glycerol (2.5% v/v). The pH of the media (pH = 8.0) was adjusted by gradual dropwise addition of concentrated NaOH aqueous solution.
The appropriate amount of the 4-dye probe (1) was dissolved in 950 μL of Tris–HCl buffer. The resulting solution was placed into a plastic fluorimeter cuvette and preheated to 37 °C. Afterwards, the fluorescence emission spectrum upon excitation with the light source of 425 nm was measured at the time 0 using a fluorescence spectrometer (Cary Eclipse, Agilent Technologies, Santa Carla, CA, USA). Then 20 μL of 1 mM HCl with/without enzyme (trypsin or chymotrypsin) and 30 μL of physiological saline solution with/without enzyme (caspase-8) were added, resulting in a final volume of 1 mL of 5 μM 4-dye substrate (1). In the case of caspase-8, DL-dithiothreitol (10 mM) was also present in a buffer. Fluorescence emission responses were then repeatedly measured at the times 2, 5, 8, 12, 16, 20, 25, 30, 35, 40, and 45 min. During the entire period of the experiment, a fluorimeter cuvette was placed in a cell holder preheated to 37 °C, and located inside a fluorescence spectrometer.
As the three target proteases, trypsin, chymotrypsin, and caspase-8 were considered. […] During the biological testing, the emission responses of all four dyes were monitored throughout the entire period of the experiment. The assay conditions and parameters were established based on our practical observations, theoretical facts, and previous experience.[12,28,29] To obtain a uniform incubation medium suitable for all three proteases detection, the appropriate conditions for trypsin and chymotrypsin sensing were combined with those suitable for caspase-8 screening. As a result, EDTA, NaCl and glycerol were added to the Tris–HCl buffer solution, and its pH value was set to 8.0. After dissolving the intact 4-dye probe (1) in that way prepared buffer, the emission responses of all four fluorophores were monitored within 45 min of incubation at 37 °C.

[3] = biological target: T2, α-chymotrypsin (bovine pancreas, TLCK treated, type VII) (Bos taurus, UniProt P00766); test: Single protease detection with the triple-FRET 4-dye probe: chymotrypsin; format: biochemical; conditions: 5 μM probe, Tris–HCl pH 8.0, 37 °C, 45 min, λexc 425 nm, three parallels
T2 construct: α-chymotrypsin (bovine pancreas, TLCK treated, type VII, ≥40 units per mg protein); purchased Sigma-Aldrich (Steinheim, Germany); host or cells: bovine pancreas (tissue-derived)
Excerpt: as §1, §2, §3

[4] = Storage stability of the solid, LC-MS; format: physicochemical; conditions: solid powder stored at −80 °C; dissolved to 50 μM in Tris–HCl pH 8.0 and analysed by LC-MS, repeated over 30 days
Method: The isolated 4-dye substrate (1) was characterized by LC-MS analysis and HRMS. Its final purity was determined based on LC-MS analysis, testing different analytical columns, mobile phases, gradients and elution times (ESI – Fig. S6 and S7 ^†). For stability testing, the 4-dye probe (1) in the form of powder (stored at −80 °C) was dissolved in an appropriate volume of Tris–HCl buffer (pH = 8.0) to obtain a 50 μM solution and subsequently analyzed by LC-MS. This process was repeated a few times over 30 days.
Due to its size and complexity, the 4-dye probe (1) was also briefly examined from the solubility in aqueous media point of view. It turned out that at least 0.5 mM stock solution of the target substrate (1) in Tris–HCl buffer (pH = 8.0) could be promptly and efficiently prepared. For comparison, a solution of a hundredfold lower concentration (5 μM) of the 4-dye probe (1) in the same buffer media was utilized in the biological assays. The relatively high solubility of the substrate (1) could be attributed to its structure (Fig. 1), comprising six polyethylene glycol-based (PEG) spacers and two charged fluorophores (Rhodamine B and HN6). Moreover, three terminal carboxyl groups of the peptide backbone are instantly turned into corresponding carboxylate salts in a basic buffer environment, contributing to the solubility of the 4-dye probe (1) in aqueous media. […]

chymotrypsin = biological target: T3, chymotrypsin (Bos taurus, UniProt P00766); test: LC-MS analysis of the probe cleaved by chymotrypsin; format: biochemical, bovine; conditions: LC-MS of cleavage fragments; chymotrypsin 2.5 µg/mL, 2 hours
T3 construct: α-chymotrypsin (bovine pancreas, TLCK treated, type VII, ≥40 units per mg protein); purchased Sigma-Aldrich (Steinheim, Germany); host or cells: bovine pancreas (tissue-derived)
Method: (§4) Following the successful development of the methodology for the separate detection of individual proteases in a sample, we decided to investigate and evaluate the possibilities of simultaneous detection of multiple enzymes. […] Consequently, some potential ambiguities and drawbacks were expected from the perspective of nonspecific cleavage of the 4-dye substrate 1 by chymotrypsin. The experiments of the two-enzyme detection were performed with all three theoretically possible pairs of the considered proteases in their low concentrations.
Figure S10: LC-MS analysis of the 4-dye probe cleaved by chymotrypsin (2.5 µg/mL, 2 hours).
Fragment 1 (Rt = 1.46 min) […]

[5] = Solubility in aqueous media (Tris–HCl buffer); format: physicochemical; conditions: Tris–HCl buffer pH 8.0, from solid, read-out: solubility: stock solution that could be promptly and efficiently prepared
Method: Due to its size and complexity, the 4-dye probe (1) was also briefly examined from the solubility in aqueous media point of view. It turned out that at least 0.5 mM stock solution of the target substrate (1) in Tris–HCl buffer (pH = 8.0) could be promptly and efficiently prepared. For comparison, a solution of a hundredfold lower concentration (5 μM) of the 4-dye probe (1) in the same buffer media was utilized in the biological assays. The relatively high solubility of the substrate (1) could be attributed to its structure (Fig. 1), comprising six polyethylene glycol-based (PEG) spacers and two charged fluorophores (Rhodamine B and HN6). Moreover, three terminal carboxyl groups of the peptide backbone are instantly turned into corresponding carboxylate salts in a basic buffer environment, contributing to the solubility of the 4-dye probe (1) in aqueous media. Afterwards, its stability was taken into consideration. The dark blue powder obtained after freeze-drying was dissolved in an appropriate volume of Tris–HCl buffer (pH = 8.0), and shortly after that, LC-MS analysis was performed. The process was repeated a few times within one month.

caspase-8 = biological target: T4, caspase-8 (Homo sapiens, UniProt Q14790); test: LC-MS analysis of the probe cleaved by caspase-8; format: biochemical; conditions: LC-MS of cleavage fragments
T4 construct: Caspase-8 (human, recombinant, active, 5000 units per mg protein); purchased Enzo Life Sciences, Inc. (New York, USA)
T4 sequence (Q14790 217-374 limits assumed): as the sequence (Q14790 217-374 limits assumed) above
T4 sequence (Q14790 385-479 limits assumed): as the sequence (Q14790 385-479 limits assumed) above

[6] = biological target: T5, Trypsin (bovine pancreas, TPCK treated) (Bos taurus, UniProt P00760); test: Single protease detection with the triple-FRET 4-dye probe: trypsin; format: biochemical; conditions: 5 μM probe, Tris–HCl pH 8.0, 37 °C, 45 min, λexc 425 nm, three parallels
T5 construct: Trypsin (bovine pancreas, TPCK treated, ≥10 000 BAEE units per mg protein); purchased Sigma-Aldrich (Steinheim, Germany); host or cells: bovine pancreas (tissue-derived)
T5 sequence (P00760 24-246): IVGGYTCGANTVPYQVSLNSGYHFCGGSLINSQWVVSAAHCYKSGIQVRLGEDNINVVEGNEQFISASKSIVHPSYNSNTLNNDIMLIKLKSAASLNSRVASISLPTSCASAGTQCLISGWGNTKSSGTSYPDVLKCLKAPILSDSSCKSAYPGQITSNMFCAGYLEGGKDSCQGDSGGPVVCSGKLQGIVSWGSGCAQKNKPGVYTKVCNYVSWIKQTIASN
Excerpt: as §1, §2, §3

trypsin = biological target: T6, trypsin (Bos taurus, UniProt P00760); test: LC-MS analysis of the probe cleaved by trypsin; format: biochemical, bovine; conditions: LC-MS of cleavage fragments
T6 construct: Trypsin (bovine pancreas, TPCK treated, ≥10 000 BAEE units per mg protein); purchased Sigma-Aldrich (Steinheim, Germany); host or cells: bovine pancreas (tissue-derived)
T6 sequence (P00760 24-246): T5 sequence (P00760 24-246)
Method: as §4

[7] = 16 min vs 0 min, Tris–HCl pH 8.0, 37 °C, mean of 3 parallels
[8] = 45 min vs 0 min, Tris–HCl pH 8.0, 37 °C, mean of 3 parallels

lowest detectable concentration of caspase-8 [1]: 2 U mL^−1
lowest detectable concentration of chymotrypsin [3]: 0.2 µg/mL
sites of the probe cleaved by caspase-8 (caspase-8): cleave only their own recognizable sites
lowest detectable concentration of trypsin [6]: 0.5 ng/mL
sites of the probe cleaved by trypsin (trypsin): cleave only their own recognizable sites
SMILES: CCN(CC)c1ccc2cc(C(=O)N[C@@H](CCCCNC(=O)COCCOCCNC(=O)[C@H](C)NC(=O)[C@H](CC(=O)O)NC(=O)[C@@H](NC(=O)[C@H](CCC(=O)O)NC(=O)[C@H](CC(C)C)NC(=O)COCCOCCNC(=O)[C@H](CCCCNC(=O)CN(C)C(=O)c3ccccc3-c3c4ccc(=O)cc-4oc4cc(O)ccc34)NC(=O)COCCOCCNC(=O)[C@H](C)NC(=O)[C@H](CCCCN)NC(=O)[C@H](C)NC(=O)COCCOCCNC(=O)[C@H](CCCCNC(=O)CN(C)C(=O)c3ccccc3-c3c4ccc(=[N+](CC)CC)cc-4oc4cc(N(CC)CC)ccc34)NC(=O)COCCOCCNC(=O)[C@H](C)NC(=O)[C@H](Cc3ccccc3)NC(=O)[C@H](C)NC(=O)COCCOCCNC(=O)CN(C)C(=O)c3ccccc3-c3c4ccc(=[N+](CC)CC)cc-4oc4c3CCc3cc(N(C)C)ccc3-4)[C@@H](C)O)C(=O)O)c(=O)oc2c1 [4-dye probe (1)] (X1-[Sar][AEEA]AFA[AEEA]K([Sar-RhodamineB])[AEEA]AKA[AEEA]K([Sar-X2])[AEEA]LETDA[AEEA]-X3)
fluorescence intensities of all four dyes during incubation in buffer (stability in buffer) ([2]; Tris–HCl pH 8.0 with NaCl, EDTA, glycerol, 37 °C, 45 min): practically unchanged
DEAC (I16/I0) [2, 7]: 1.03
DEAC(I16/I0)/FL(I16/I0) [2, 7]: 0.99
FL (I16/I0) [2, 7]: 1.04
HN6 (I16/I0) [2, 7]: 0.97
DEAC (I45/I0) [2, 8]: 1.05
DEAC(I45/I0)/FL(I45/I0) [2, 8]: 0.97
FL (I45/I0) [2, 8]: 1.08
HN6 (I45/I0) [2, 8]: 0.97
stability on storage (comparable LC-MS chromatograms and peak areas) [4]: at least 30 days
sites of the probe cleaved by chymotrypsin (chymotrypsin): both chymotrypsin and trypsin linkers were cleaved
solubility [5]: ≥ 500 µM
